Test results: PMC6447045 (Nature chemical biology, 2019)

T1: His-tagged NPAS3 (neuronal PAS domain protein 3) (UniProt Q9QZQ0 56-455)
T1 sequence (looked up): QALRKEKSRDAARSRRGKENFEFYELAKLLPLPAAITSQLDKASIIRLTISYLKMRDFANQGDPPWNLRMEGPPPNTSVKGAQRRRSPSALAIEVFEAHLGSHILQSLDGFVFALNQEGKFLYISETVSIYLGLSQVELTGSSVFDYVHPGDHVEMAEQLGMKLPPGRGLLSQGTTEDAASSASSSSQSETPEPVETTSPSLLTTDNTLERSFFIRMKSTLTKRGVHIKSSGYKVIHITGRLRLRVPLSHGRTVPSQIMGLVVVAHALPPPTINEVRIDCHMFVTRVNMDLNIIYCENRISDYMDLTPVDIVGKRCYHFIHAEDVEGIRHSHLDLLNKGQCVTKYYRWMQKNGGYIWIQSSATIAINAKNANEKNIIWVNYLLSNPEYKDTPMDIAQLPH

B1: chimeric ARNT-GFP protein (ARNT residues 82–470 fused to Aequorea GFP) (domain or fragment)
chain: not shown
B2: mouse HIF-2α bHLH-PAS-A-PAS-B region (3–361), His-tagged (domain or fragment)
chain: not shown
B3: HIF-2α mutant M252A (3–361), His-tagged (domain or fragment)
chain: not shown
B4: His-tagged HIF-1α (domain or fragment)
chain: not shown
B5: HIF-2α G323E (3–361), His-tagged (domain or fragment)
chain: not shown

Legend:
Experiment in all cases: FRET or BRET
[1] = target: T1, His-tagged NPAS3 (neuronal PAS domain …)
[2] = target: ARNT F446L-GFP (ARNT residues 82–470 fused to Aequorea GFP) (mouse, UniProt P53762 82-470, F446L)
Chain of ARNT F446L-GFP (ARNT residues 82–470 fused to Aequorea GFP) (P53762 82-470 F446L): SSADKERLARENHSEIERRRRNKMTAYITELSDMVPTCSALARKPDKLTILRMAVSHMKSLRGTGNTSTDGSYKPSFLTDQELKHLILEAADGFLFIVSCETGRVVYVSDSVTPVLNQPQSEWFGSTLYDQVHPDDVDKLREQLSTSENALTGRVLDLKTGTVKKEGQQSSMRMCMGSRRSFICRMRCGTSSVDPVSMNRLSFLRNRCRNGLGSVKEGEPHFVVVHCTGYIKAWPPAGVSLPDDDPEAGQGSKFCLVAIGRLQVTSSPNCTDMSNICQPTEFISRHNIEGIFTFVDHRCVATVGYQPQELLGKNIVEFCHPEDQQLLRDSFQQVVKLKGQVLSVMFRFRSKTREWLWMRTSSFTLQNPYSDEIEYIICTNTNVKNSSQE

[3] = target: B1

Binder	Kd [1] [nM]	Kd [2] [nM]	Kd [3] [nM]
B1	8.6	–	–
B2	–	~0.8	29.1
B3	–	–	1.4
B4	–	–	11.7
B5	–	–	~10.5
